From the supplement of paper PMC9233669
Variants at the floor of the assay were thinned out.

Tests used:
[1] = system: biotinyl-Met-oxazolone; experiment: self-aminoacylation, catalytic enhancement (BMO) (fold over background); higher = more active; k-Seq, kA / k0A0; sequences stand for … in GGGAAUGGAUCCACAUCUACGAAUUC…UUCACUGCAGACUUGACGAAGCUG
In short: (§1)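 Mutagenized RNA pools with a 21-nt variable region (0.43 μM) reacted with each biotinyl-aminoacyl-oxazolone at 2–1250 μM. Reactions ran in 50 μL HEPES/NaCl/KCl/MgCl2/CaCl2 buffer with 5% acetonitrile, pH 6.9–7.0, for 90 minutes at room temperature. Streptavidin-captured RNA was quantified by triplicate qPCR and Illumina sequencing, and per-sequence fraction reacted was fit to a pseudo-first-order model with 1000 bootstraps. Catalytic enhancement is median kA divided by the uncatalyzed rate, the low-activity peak of a bimodal Gaussian fit.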

[2] = system: biotinyl-Trp-oxazolone; experiment: self-aminoacylation, catalytic enhancement (BWO) (fold over background); higher = more active; k-Seq, kA / k0A0; sequences stand for … in GGGAAUGGAUCCACAUCUACGAAUUC…UUCACUGCAGACUUGACGAAGCUG
In short: as §1

[3] = system: biotinyl-Val-oxazolone; experiment: self-aminoacylation, catalytic enhancement (BVO) (fold over background); higher = more active; k-Seq, kA / k0A0; sequences stand for … in GGGAAUGGAUCCACAUCUACGAAUUC…UUCACUGCAGACUUGACGAAGCUG
In short: as §1

[4] = system: biotinyl-Phe-oxazolone; experiment: self-aminoacylation, catalytic enhancement (BFO) (fold over background); higher = more active; k-Seq, kA / k0A0; sequences stand for … in GGGAAUGGAUCCACAUCUACGAAUUC…UUCACUGCAGACUUGACGAAGCUG
In short: as §1

[5] = system: biotinyl-Leu-oxazolone; experiment: self-aminoacylation, catalytic enhancement (BLO) (fold over background); higher = more active; k-Seq, kA / k0A0; sequences stand for … in GGGAAUGGAUCCACAUCUACGAAUUC…UUCACUGCAGACUUGACGAAGCUG
In short: as §1

[6] = system: biotinyl-Ile-oxazolone; experiment: self-aminoacylation, catalytic enhancement (BIO) (fold over background); higher = more active; k-Seq, kA / k0A0; sequences stand for … in GGGAAUGGAUCCACAUCUACGAAUUC…UUCACUGCAGACUUGACGAAGCUG
In short: as §1

Sequence: AUUACCCUGGUCAUCGAAUAA [Fam2.1 aminoacylation ribozyme variant]
- self-aminoacylation [1]: 0.987
- self-aminoacylation [2]: 1.41
- self-aminoacylation [3]: 1.15
- self-aminoacylation [4]: 0.904
- self-aminoacylation [5]: 0.914
- self-aminoacylation [6]: 0.801

Sequence: AUUACCCUGGUCAUCGACUGU [Fam2.1 aminoacylation ribozyme variant]
- self-aminoacylation [1]: 0.726
- self-aminoacylation [2]: 0.723
- self-aminoacylation [3]: 0.804
- self-aminoacylation [4]: 0.377
- self-aminoacylation [5]: 0.82
- self-aminoacylation [6]: 0.846

Sequence: AUUACCCUGGUCAUCGAGAGA [Fam2.1 aminoacylation ribozyme variant]
- self-aminoacylation [1]: 1.8
- self-aminoacylation [2]: 1.46
- self-aminoacylation [3]: 1.36
- self-aminoacylation [4]: 3.1
- self-aminoacylation [5]: 1.72
- self-aminoacylation [6]: 1.28

Sequence: AUUACCCUGGUCAUCGAGAGU [Fam2.1 aminoacylation ribozyme variant]
- self-aminoacylation [1]: 0.991
- self-aminoacylation [2]: 0.568
- self-aminoacylation [3]: 1.02
- self-aminoacylation [4]: 1.79
- self-aminoacylation [5]: 0.822
- self-aminoacylation [6]: 0.803

Sequence: AUUACCCUGGUCAUCGAGGCA [Fam2.1 aminoacylation ribozyme variant]
- self-aminoacylation [1]: 1.9
- self-aminoacylation [2]: 0.847
- self-aminoacylation [3]: 1.59
- self-aminoacylation [4]: 1.25
- self-aminoacylation [5]: 1.97
- self-aminoacylation [6]: 1.29

Sequence: AUUACCCUGGUCAUCGAGGGA [Fam2.1 aminoacylation ribozyme variant]
- self-aminoacylation [1]: 5.93
- self-aminoacylation [2]: 5.46
- self-aminoacylation [3]: 2.99
- self-aminoacylation [4]: 9.56
- self-aminoacylation [5]: 5.66
- self-aminoacylation [6]: 2.71

Sequence: AUUACCCUGGUCAUCGAGUCU [Fam2.1 aminoacylation ribozyme variant]
- self-aminoacylation [1]: 0.784
- self-aminoacylation [2]: 0.846
- self-aminoacylation [3]: 0.901
- self-aminoacylation [4]: 0.56
- self-aminoacylation [5]: 0.712
- self-aminoacylation [6]: 0.697

Sequence: AUUACCCUGGUCAUCGAGUUG [Fam2.1 aminoacylation ribozyme variant]
- self-aminoacylation [1]: 2.14
- self-aminoacylation [2]: 1.47
- self-aminoacylation [3]: 1.75
- self-aminoacylation [4]: 3.62
- self-aminoacylation [5]: 2.04
- self-aminoacylation [6]: 1.27

Sequence: AUUACCCUGGUCAUCGAUUGC [Fam2.1 aminoacylation ribozyme variant]
- self-aminoacylation [1]: 0.757
- self-aminoacylation [2]: 0.663
- self-aminoacylation [3]: 0.926
- self-aminoacylation [4]: 0.81
- self-aminoacylation [5]: 0.84
- self-aminoacylation [6]: 1.15

Sequence: AUUACCCUGGUCAUCGCCUGA [Fam2.1 aminoacylation ribozyme variant]
- self-aminoacylation [1]: 2.48
- self-aminoacylation [2]: 3.69
- self-aminoacylation [3]: 3.15
- self-aminoacylation [4]: 14.2
- self-aminoacylation [5]: 3.64
- self-aminoacylation [6]: 2.72

Sequence: AUUACCCUGGUCAUCGCGGGA [Fam2.1 aminoacylation ribozyme variant]
- self-aminoacylation [1]: 5.35
- self-aminoacylation [2]: 3.4
- self-aminoacylation [3]: 4.56
- self-aminoacylation [4]: 29.3
- self-aminoacylation [5]: 7.42
- self-aminoacylation [6]: 5.03

Sequence: AUUACCCUGGUCAUCGCGUGU [Fam2.1 aminoacylation ribozyme variant]
- self-aminoacylation [1]: 8.31
- self-aminoacylation [2]: 8.25
- self-aminoacylation [3]: 4.84
- self-aminoacylation [4]: 51.7
- self-aminoacylation [5]: 9.06
- self-aminoacylation [6]: 4.14

Sequence: AUUACCCUGGUCAUCGCGUUA [Fam2.1 aminoacylation ribozyme variant]
- self-aminoacylation [1]: 2.71
- self-aminoacylation [2]: 4.12
- self-aminoacylation [3]: 2.32
- self-aminoacylation [4]: 12.7
- self-aminoacylation [5]: 2.73
- self-aminoacylation [6]: 2.27

Sequence: AUUACCCUGGUCAUCGGGUGG [Fam2.1 aminoacylation ribozyme variant]
- self-aminoacylation [1]: 68
- self-aminoacylation [2]: 81.4
- self-aminoacylation [3]: 26.3
- self-aminoacylation [4]: 395
- self-aminoacylation [5]: 80.6
- self-aminoacylation [6]: 22.6

Sequence: AUUACCCUGGUCAUCGUGUGA [Fam2.1 aminoacylation ribozyme variant]
- self-aminoacylation [1]: 3.01
- self-aminoacylation [2]: 3.41
- self-aminoacylation [3]: 1.85
- self-aminoacylation [4]: 17.2
- self-aminoacylation [5]: 3.08
- self-aminoacylation [6]: 1.58

Sequence: AUUACCCUGGUCAUCUAAUGA [Fam2.1 aminoacylation ribozyme variant]
- self-aminoacylation [1]: 1.06
- self-aminoacylation [2]: 0.586
- self-aminoacylation [3]: 0.917
- self-aminoacylation [4]: 0.963
- self-aminoacylation [5]: 0.908
- self-aminoacylation [6]: 0.967

Sequence: AUUACCCUGGUCAUCUAGAGA [Fam2.1 aminoacylation ribozyme variant]
- self-aminoacylation [1]: 0.865
- self-aminoacylation [2]: 0.6
- self-aminoacylation [3]: 1.03
- self-aminoacylation [4]: 0.684
- self-aminoacylation [5]: 0.887
- self-aminoacylation [6]: 1.04

Sequence: AUUACCCUGGUCAUCUAGUGC [Fam2.1 aminoacylation ribozyme variant]
- self-aminoacylation [1]: 1.06
- self-aminoacylation [2]: 0.68
- self-aminoacylation [3]: 1
- self-aminoacylation [4]: 1.27
- self-aminoacylation [5]: 1.08
- self-aminoacylation [6]: 0.835

Sequence: AUUACCCUGGUCAUUCAGUGA [Fam2.1 aminoacylation ribozyme variant]
- self-aminoacylation [1]: 4.7
- self-aminoacylation [2]: 6.28
- self-aminoacylation [3]: 3.16
- self-aminoacylation [4]: 14.1
- self-aminoacylation [5]: 5.37
- self-aminoacylation [6]: 3.33

Sequence: AUUACCCUGGUCAUUGAGGGA [Fam2.1 aminoacylation ribozyme variant]
- self-aminoacylation [1]: 1.25
- self-aminoacylation [2]: 2.06
- self-aminoacylation [3]: 1.51
- self-aminoacylation [4]: 1.13
- self-aminoacylation [5]: 1.25
- self-aminoacylation [6]: 1.23

Sequence: AUUACCCUGGUCAUUGAGUGU [Fam2.1 aminoacylation ribozyme variant]
- self-aminoacylation [1]: 4.42
- self-aminoacylation [2]: 5.6
- self-aminoacylation [3]: 2.78
- self-aminoacylation [4]: 18.9
- self-aminoacylation [5]: 4.72
- self-aminoacylation [6]: 2.42

Sequence: AUUACCCUGGUCCACGAGUGA [Fam2.1 aminoacylation ribozyme variant]
- self-aminoacylation [1]: 9.99
- self-aminoacylation [2]: 10.5
- self-aminoacylation [3]: 4.95
- self-aminoacylation [4]: 61.1
- self-aminoacylation [5]: 10.7
- self-aminoacylation [6]: 5.37

Sequence: AUUACCCUGGUCCCCGAGUGA [Fam2.1 aminoacylation ribozyme variant]
- self-aminoacylation [1]: 15.2
- self-aminoacylation [2]: 17.3
- self-aminoacylation [3]: 8.55
- self-aminoacylation [4]: 113
- self-aminoacylation [5]: 15.6
- self-aminoacylation [6]: 6.57

Sequence: AUUACCCUGGUCCGCGAGUGA [Fam2.1 aminoacylation ribozyme variant]
- self-aminoacylation [1]: 10.5
- self-aminoacylation [2]: 11.5
- self-aminoacylation [3]: 6.47
- self-aminoacylation [4]: 53.1
- self-aminoacylation [5]: 11.5
- self-aminoacylation [6]: 6.07

Sequence: AUUACCCUGGUCGUCAAGUGA [Fam2.1 aminoacylation ribozyme variant]
- self-aminoacylation [1]: 0.773
- self-aminoacylation [2]: 0.394
- self-aminoacylation [3]: 0.836
- self-aminoacylation [4]: 0.371
- self-aminoacylation [5]: 0.821
- self-aminoacylation [6]: 0.713
